How the values were obtained:
[1] = target: Human IL-10Rβ extracellular domain (20-220), biotinylated (human) (UniProt Q08334); experiment: SPR; IL-10 clone 5.1 alone, immobilized; conditions: ligand
[2] = target: Human IL-10Rβ extracellular domain (20-220), biotinylated (human) (UniProt Q08334); experiment: SPR; clone 5.1 immobilized, pre-bound with saturating soluble IL-10Rα; conditions: ligand
[3] = target: Human IL-10Rβ on cells (Daudi, Jurkat, YT-1, THP-1 cell lines; primary human PBMC populations) (human) (UniProt Q08334); experiment: cell-based or functional assay
Human IL-10Rβ on cells (Daudi, Jurkat, YT-1, THP-1 cell lines; primary human PBMC populations) (human), sequence (Q08334 20-325): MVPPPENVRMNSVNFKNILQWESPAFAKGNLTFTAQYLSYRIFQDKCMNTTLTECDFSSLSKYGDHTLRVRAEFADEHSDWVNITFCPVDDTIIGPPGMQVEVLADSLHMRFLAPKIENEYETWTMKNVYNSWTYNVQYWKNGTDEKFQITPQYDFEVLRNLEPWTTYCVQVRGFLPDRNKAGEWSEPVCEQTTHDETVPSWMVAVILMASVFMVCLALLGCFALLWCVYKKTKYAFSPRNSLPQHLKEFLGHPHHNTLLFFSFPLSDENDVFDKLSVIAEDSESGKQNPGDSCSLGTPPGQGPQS

Human IL-10Rβ extracellular domain (20-220), biotinylated (human), sequence (Q08334 other isoform, or with tags, fused parts or gaps): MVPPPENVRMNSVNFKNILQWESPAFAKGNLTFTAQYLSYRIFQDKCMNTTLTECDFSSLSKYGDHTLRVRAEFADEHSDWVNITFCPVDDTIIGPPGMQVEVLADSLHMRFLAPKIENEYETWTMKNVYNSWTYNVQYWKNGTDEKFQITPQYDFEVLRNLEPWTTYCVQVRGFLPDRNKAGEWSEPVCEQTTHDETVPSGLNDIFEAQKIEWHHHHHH

Substance	Kd [1]	Kd [2]	STAT3 activation relative to WT IL-10 in primary NK cells, B cells and T cells [3]	phospho-STAT3 activity in YT-1 cells [3]
Affinity matured IL-10 clone 5.1 (Super-10), soluble (from UniProt P22301 19-178)	70 nM	30 nM		
IL-10 D25A/E96A variant (10-DE) (from UniProt P22301 19-178) (ligand)			35 to 50%	50%
IL-10 D25K variant (from UniProt P22301 19-178) (ligand)				50%
